Test results taken from the domain aggregation screens of Martell et al. (2025).

Assay: soluble fraction after stress (log2 fold change); higher = more stays soluble; pooled small domains, quantitative proteomics
Conditions: stress: pH 4
Procedure, shortened: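 Custom libraries of small protein domains were pooled and measured with high-throughput quantitative proteomics after pH 4 stress. The read-out is the fold change in the amount of each domain that stays soluble after the acid stress, taken as a measure of aggregation propensity. Fold changes are on a log2 scale, and higher values mean more of the domain stayed soluble.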

Row | Sequence | soluble fraction (log2)
1 | HMIQADFIPQVEQRLADRGLSMSGDVMAAFLDRAGYGLRHVSNEIEKLSLYLGDRKKVTVEDVVQMVAPVR | -0.415
2 | HMADEDTILALAKEILASWPDKVEAYKNGNKGMLGLFMGELMKKSGGKANPKSASALIQKLLE | -0.231
3 | HMRTQEELVAEVREQMEAMGTIATLYVELYESSEERLVGGVIFEDERHYRFVYEDGLLHYEEEK | -1
4 | HMKGALQIAIEEGFNWNLDKKYWNIVQSTVIAKRLGLKTTSGLKEAIEGMGGEYKRTKKARGYLVPTFKD | 0.354
5 | HMSKSIGEALKEERRSLGLTQEQFIKGIISESFYSKVERGKNEIVAVDLLKILAANNISEEEFLSKLN | -0.168
6 | HMSARRHAVKHLDANQLQTRVARMLSEFGLTAKVSKDPNSNALIIDGAPEAQRIAAQLITTIDKE | 0.063
7 | HMEMSLGEKLKQARLTKNFSQEYMAEVLQISQKTYSNFENNKTKPDFSQIEEISKVLETSILEFLT | -0.0931
8 | HMGIDAIDNFVSKIIMKIEGLGESEVPTSTIGKFIMEGLQYLDTVAYVRYASVYKNFKEAKDFEQFVGSL | -0.566
9 | HMSINTLEVHSLKALENLAESPLLISFSYENEEYNYRLASSDVSLLKKISSNYSDDSDIKGLRFIS | -0.316
10 | HMAPFSGVEPREWDSLVERGRQSGEVHAEDVTHVLRHVELTGDVLTDVQSKMAEHGITIDDA | -0.0344
11 | HMGNLIIFYDEGIGSGPLMKAVNDSGVSLVYEYKNLHGIAIRPSAKTNIQDAIAYFQKVNGVLSVEQ | -0.65
12 | HMGKKIVERRNTILNMVNKYGTLDFPQLRDAFPDVSDVTLRKDLQYLDSTKQAIRTHGGIKSI | -0.00897
13 | HMVDLDIENYELEDILNLFRLQYNFVEADLKRAYRMALKLHPDKSGLDGEYFRFYMKAYKIVENIFNFRNR | -1.38
14 | HMNKDEFLRRLEDALSGEVPASVIRENLNYYADYLSQELGKGRTMDEIIEEIGEPNIVARTIINSAEAA | -0.602
15 | HMASPTKQLVLEALRASGQPMSSMELSAQIGVSRATAQRYLSTLASAGEVKIQLRYGTTGRPEQEFLAIE | 0.22
16 | HMYEDSNQSLNFFAIKFIKEKNIKISQETTNLIVERARGDRGNLINELQKLEALSLTRKKITQEDVFNLTN | 0.22
17 | HMEYSAAYDRELESIFNLTERGKWEEAEAEVGLLLQQYPEDKTLLRISEWVATQKTILREQAIEDRIRS | -0.48
18 | HMAEDDAVQKAVREAVAESADAVADYKAGSERALNFIVGVVMKKTRGKASPGEVHRLVKAEVEK | 0.143
19 | HMRDRYEYLKELRLYLSPLGRTEEDRVIEYYAELIGDKIESGIPENGVLSQLGTPRELADKILAETQEY | -0.384

Row | Sequence | soluble fraction (log2)
20 | HMSDAKKRAFSKDEILYSLKNRPFTSFDIESLFDDESKKTFIGLLDKGEISEKKVAGTIFYYLR | -0.461
21 | HMKMNRELNQRQIKMLDYLSVNPKTTRKQYTKMMGISFMTSYRDIQELIDKAYIISKGQGRGTYYILAN | -0.0196
22 | HMTKSEWLRESREHLGLSQTDLRNLLNTALNRSYDKSRISRWENSKENIPAEVVKQIESLIATR | 0.406
23 | HMEPTPREIVVQQLGYRGLEVLGNAEYQFPKETQIIILKLAELISSGSVTETLEGGKLLALFRGVGINVR | -1.36
24 | HMDKDTFGEFENVKLTEEEYNKLVEKLGENNTKLMIEELSTGIASKGYKYKSHYATILSWSRRRVTKLQER | -1.18
25 | HMNVDSIPGKSGIVTQGIDNLKAMGRVTVNGMEWTARSKDGSLIEEGKVVRVYGVEGVKLIVEED | -0.72
26 | HMYLPPYMEVRAVMILDGKPMALMYIEGEGDGLIVSPGYKFDNGKGKVVSITPTKVVVLWAGTKMELG | -1.17
27 | HMDKEIKILKEKRLDDVQQAIRELSPQKRRVVEMKLYHNSTNQEVADKLAISVNTVKSLYTSALHDLRRIL | 0.109
28 | HMIYKLIADRLKNRINSDEFEVGDALPSEKALAGELEVSVMTIRKALTLLESEKLIVKRHGSGSYVARKSN | 0.0567
29 | HMAPADLSPEERVVLDALALEPVHVDALAAKLGRRSEELLTSLTLMEMRGLAVAHAGSRYSRATMT | -0.934
30 | HMDGMNEELYQKFFALVGNPDEGKRISQAKAAQALGYSSAVVSAYKNRTYNGNIKAFEDAVQAWLKREERR | 0.141
31 | HMRVLEYTADGSRLDVLLSQDGVLSRSRAAELIKGGAVTVDGRAEGKPSAKPAPGALVRVEVPE | ≥ 0.43
32 | HMAPIEVPYNVFRQQVVEGNVESVATRADTVQGYFETPVTLPARPDAAAAEPVTVERFSTTLPSF | 0.00217
33 | HMQSTEQVSVTVTIPPGGELRIDSDTFRVLLNGENVLDKQSGDWLMLSRDLLYLDIESAIGNGLSGNLIYT | -0.143
34 | HMPTKSDLLQWIKDRASKMGGAFTNSGAYALADAGVDGPRALSSEINKLLTYVNWERSVEADDVIRL | -0.296
35 | HMGKSDEIFIQKSALYEELGQPDRALEMIYSALKSDSLNIDVLHRLVTLLINQNKNEDAILYNQKIID | -0.424
36 | HMQDVVERIKKYKQLFSITSEELSKRSGIPLGTLNKILSSSTKSIKTETLAAIAKGLDVSVSDLVGREK | -0.0189
37 | HMEKLLTTRQSQIFELAKRKGYWNIPREISITQLAQLTGSSKSTISVMLHAIESKIVDTFYDEI | -0.216
38 | HMETLSKVGSTGSEVRQIQTKLKNWGYFSDKVDGIYGEKTRAAVVWFQKKNGLTADGIAGPATLKAMGIYT | ≥ 0.43
